In publication PMC4826287 (Journal of molecular biology, 2015):

B1: SPOP^MATH (MATH domain of Speckle-type POZ protein, residues 28-166) (domain or fragment, UniProt O43791 28-166, looked up)
chain: KVVKFSYMWTINNFSFCREEMGEVIKSSTFSSGANDKLKWCLRVNPKGLDEESKDYLSLYLLLVSCPKSEVRAKFKFSILNAKGEETKAMESQRAYRFVQGKDWGFKKFIRRDFLLDEANGLLPDDKLTLFCEVSVVQD

Tests used:
[1] = biological target: B1; assay: fluorescence polarisation
[2] = biological target: T1, Gli3^1-90 (90-residue N-terminal Gli3 fragment), His tag cleaved (UniProt P10071 1-90); assay: AUC
T1 sequence (looked up): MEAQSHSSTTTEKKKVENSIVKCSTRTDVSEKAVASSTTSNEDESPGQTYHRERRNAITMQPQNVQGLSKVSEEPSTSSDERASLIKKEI

[3] = biological target: B1; assay: fluorescence polarisation; remark: listed apart in the source
[4] = biological target: T2, SPOP^MATH-BTB (SPOP construct encompassing residues 28-337) (UniProt O43791 28-337); assay: fluorescence polarisation
[5] = biological target: B1; assay: BLI
[6] = biological target: T2, SPOP^MATH-BTB (SPOP construct …); assay: BLI
[7] = biological target: SPOP^MATH-BTB-BACK (SPOP construct encompassing residues 28-359) (UniProt O43791 28-359); assay: BLI
SPOP^MATH = SPOP^MATH (Homo sapiens, UniProt O43791); assay: Sedimentation velocity AUC, stoichiometry of Gli3^1-90/SPOP^MATH complex; type: binding; conditions: SV AUC, excess SPOP^MATH (Gli3^1-90 156 μM / SPOP^MATH 525 μM), pH 6.0, 20 °C, size-and-shape distribution analysis

Ac-ENLACDEVTSTTSSST-NH2 [pPuc (peptide derived from the Drosophila melanogaster protein Puckered, residues 91-106)] showed a Kd [1] of 7.7 µM.

Work on Ac-MEAQSHSSTTTEKK-NH2 [SBM1 (Gli3 peptide, SPOP-binding motif 1)] yielded a Kd [1] of ~4100 µM.

B1 was tested, and the “stoichiometry N” value [2] was ≤ 3 SPOP^MATH per Gli3^1-90.

Ac-EKAVASSTTSNEDES-NH2 [SBM2 (Gli3 peptide, SPOP-binding motif 2)] showed a Kd [1] of 80 µM.

In the case of ENLACDEVTSTTSSST (not fully specified; fluorescein on the N-terminus; C-terminal amide) [F-pPuc (N-terminally fluorescently labeled Puc peptide)], the Kd [3] is reported as ~6 µM and the Kd [4] is reported as ~6 µM.

With Ac-KVSEEPSTSSDERA-NH2 [SBM3 (Gli3 peptide, SPOP-binding motif 3)] the Kd [1] was 560 µM.

B2: His6-Gli3^1-90 (N-terminal His6 tag left on) (domain or fragment, UniProt P10071 1-90, looked up)
chain: MEAQSHSSTTTEKKKVENSIVKCSTRTDVSEKAVASSTTSNEDESPGQTYHRERRNAITMQPQNVQGLSKVSEEPSTSSDERASLIKKEI
Work on B2 yielded a Kd [5] of 21 µM, a Kd [6] of 28 µM and a Kd [7] of 1.5 µM.

B3: Gli3^1-90: 90-residue N-terminal Gli3 fragment, recombinant, intrinsically disordered (protein)
chain: MEAQSHSSTTTEKKKVENSIVKCSTRTDVSEKAVASSTTSNEDESPGQTYHRERRNAITMQPQNVQGLSKVSEEPSTSSDERASLIKKEI
modifications: left off: His6, N-terminal, cleaved
With B3 the “number of MATH domain molecules bound to 1 Gli3^1-90 molecule” value (SPOP^MATH) was “up to 3”.
